From patent publication CN115594767A

What was measured:
CD16A-158V = CD16A-158V (UniProt P08637); assay: BLI, CD16A-158V on anti-his probe, antibody as analyte
[1] = target: HER2 (Human epidermal growth factor receptor 2) (human) (UniProt P04626); assay: ELISA, HER2 coated at 1 ug/mL, HRP-anti-human IgG Fc detection

UniProt P08637, sequence (P08637 17-208 F176V limits assumed): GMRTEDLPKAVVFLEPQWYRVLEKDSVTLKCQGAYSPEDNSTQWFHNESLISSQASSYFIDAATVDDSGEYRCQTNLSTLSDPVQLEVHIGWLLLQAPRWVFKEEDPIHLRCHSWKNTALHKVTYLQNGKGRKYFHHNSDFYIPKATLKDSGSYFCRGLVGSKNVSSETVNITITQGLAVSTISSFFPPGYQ

| Substance | Kd (CD16A-158V) [nM] | koff (CD16A-158V) [s⁻¹] | kon (CD16A-158V) [M⁻¹ s⁻¹] | EC50 [1] [nM] |
| --- | --- | --- | --- | --- |
| KN026 (bispecific antibody) | 464 | 0.0782 | 168000 | 0.149 |
| MGAH22 (antibody) |  |  |  | 0.127 |
